{"source": "patent US20100233154A1", "about": "“TARGETED BINDING AGENTS DIRECTED TO HEPARANASE AND USES THEREOF 463” (MedImmune Limited, priority 2008, published 2010)", "key": {"[1]": {"target": "T1, recombinant human heparanase (Homo sapiens, UniProt Q9Y251)", "T1 construct": "Heparanase 8 and 50 kDa sub-units were cloned into pacGP67 as Sma 1-EcoR1 fragments; made in house; host or cells: Hi5 insect cells, baculovirus (pFastBac Dual)", "T1 sequence (Q9Y251 158-543 limits assumed)": "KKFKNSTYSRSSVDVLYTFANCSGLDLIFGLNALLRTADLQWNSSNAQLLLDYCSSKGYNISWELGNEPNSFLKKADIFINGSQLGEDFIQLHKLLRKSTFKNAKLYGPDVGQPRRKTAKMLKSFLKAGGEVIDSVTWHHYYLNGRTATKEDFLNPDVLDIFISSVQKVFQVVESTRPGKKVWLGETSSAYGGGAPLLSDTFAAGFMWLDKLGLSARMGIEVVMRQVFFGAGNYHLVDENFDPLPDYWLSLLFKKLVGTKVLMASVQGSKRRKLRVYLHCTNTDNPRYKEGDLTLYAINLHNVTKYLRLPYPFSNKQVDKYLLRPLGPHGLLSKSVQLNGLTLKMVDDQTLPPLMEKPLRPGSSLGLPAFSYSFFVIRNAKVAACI", "T1 sequence (Q9Y251 36-109 limits assumed)": "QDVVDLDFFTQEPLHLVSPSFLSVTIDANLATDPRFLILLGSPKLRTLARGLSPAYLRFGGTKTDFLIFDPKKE", "assay": "ELISA binding to directly coated recombinant human heparanase", "description": "Titres of antibodies from Campaigns 1 and 2 were determined in an ELISA. Costar 3368 medium binding plates were coated directly with recombinant human heparanase or plates were coated with Rabbit anti-heparanase antibody (Raybiotech, Cat. IP-14-155) to capture recombinant heparanase. Directly coated heparanase was detected in three separate plates by mouse (InSight Cat. INS-26-1-0000), goat (Santa Cruz, Cat. sc26136) or rabbit (Raybiotech, Cat. IP-14-155) anti-heparanase antibodies, and quantified using appropriate secondary antibodies. Antibody captured heparanase was detected using mouse anti-heparanase (Insight Cat. INS-26-1-0000). At the end of the immunisation program, fusions were performed using mouse myeloma cells and lymphocytes isolated from the spleens and lymph nodes of the immunised mice by means of electroporation, as described in Example 2.\nInitial screening to detect antibodies binding to human heparanase in both direct coating and antibody capture ELISAs as described above identified 800 hybridomas for further testing; 535 IgG2 from Campaign 1 and 2 and 265 IgG4 from Campaign 2. Enzyme inhibition assays and cross species binding to cynomolgus and murine heparanase, in an antibody capture ELISA, identifed 12 antibodies that were taken forward for sub-cloning to provide purified antibodies for further analysis. Subsequently, confirmation of activity against human heparanase (FIGS. 3 and 4) and inhibition of recombinant cynomolgus and murine heparanase activity in the HS-cryptate degradation assay (FIG. 5a-c), together with sequence analysis, identified 8 antibodies that are described in the table below."}, "[2]": {"test_system": "precursor (65 kDa) and active (50 kDa) heparanase", "assay": "Immunoprecipitation and Western blotting of heparanase from cell lysates", "format": "binding, human", "details": "10 μg antibody, 400 μg lysate, MCF7 and MDA MB231 parental and heparanase transfected cells", "description": "Briefly, protein lysates (400 μg in RIPA lysis buffer—137 mM NaCl, 20 mM Tris pH7.4, 10% glycerol, 1% Triton, 0.5% Sodium deoxycholate, 0.1% SDS, 2 mM EDTA, 1 mM dithiothreitol, 4 mM pefabloc, 10 mM glycerol-2-phosphate, 5 mM NaF and protease inhibitor cocktail) from both parental and heparanase transfected cells were incubated with 10 μg IgG2 control or anti-heparanase (10E9.1) antibodies for 1 hour at 4° C. Following immunoprecipitation with protein G agarose beads and washing with RIPA buffer, samples were separated on 10% bis-tris gels and transferred to nitrocellulose for Western blotting. Heparanase was detected using an anti-heparanase polyclonal antibody (Biochain Cat. No. Z5010104), that recognises both precursor and active heparanase."}, "[3]": {"test_system": "MDA MB231-Hpa1#4 cells", "assay": "Heparanase expression in cells cultured with antibody (Western blot)", "format": "cell-based, human", "details": "25 μg per ml antibody, 72 hrs, compared to untreated or IgG2 control", "description": "MDA MB231-Hpa1#4 cells were cultured in the presence of 25 μg per ml anti-human heparanase antibody or control IgG2 antibody (Sigma Cat. No. 1504-1MG) for 72 hrs. Following the removal of culture medium, protein extracts were prepared from the cells in 100 μl RIPA buffer and separated on […] gels and transferred to nitrocellulose as described above. Western blots were probed with an anti-heparanase antibody that detected only pro-heparanase (SantaCruz Cat. No. SC25825)."}, "[4]": {"test_system": "HCT116 human colorectal tumour cells", "assay": "FACS binding to cell surface heparanase, HCT116", "format": "cell-based", "details": "5 or 10 μg per ml, 2 hrs at 37° C.", "description": "(§1) Although heparanase is found as a secreted protein, a proportion of heparanase is found in conjunction with cell surface heparan sulfate. The ability of anti-human heparanase antibodies to bind to cell surface heparanase was tested in a FACS assay. HT1080 human fibrosarcoma cells, HCT116 human colorectal tumour cells and B16F10 AP3 murine melanoma cells were each seeded into 6-well plates and cultured for 48 hrs prior to the addition of anti-heparanase antibody 10E9.1 or control IgG2 antibody (Sigma Cat. No. 1504-1MG). Antibodies were added to the cells to a final concentration of 5 or 10 μg per ml and incubated with the cells for 2 hrs at 37° C. The cells were then washed with phosphate buffered saline (PBS) and harvested by incubation with trypsin. The cells were pelleted by centrifugation and resuspended in 0.5 ml PBS, 0.1% BSA containing 1/200 dilution of AlexaFluor 488 anti-human IgG. The cells were incubated for 1 hr at room temperature, washed with PBS/BSA, resuspended in PBS and analysed by FACS. […] The differences likely reflect a lower affinity for murine heparanase in addition to any differences in absolute heparanase expression."}, "[5]": {"test_system": "B16F10 AP3 murine melanoma cells", "assay": "FACS binding to cell surface heparanase, B16F10 AP3", "format": "cell-based", "details": "5 or 10 μg per ml, 2 hrs at 37° C.", "description": "as §1"}, "[6]": {"test_system": "MCF7-Hpa1#19 xenograft", "assay": "Subcutaneous xenograft tumour growth, MCF7-Hpa1#19", "format": "in vivo, SCID mice", "details": "once weekly i.p.; 10E9.1 at 7.5 or 15 mg per kg", "description": "MCF7-Hpa1#19 and HCT116 tumour cells were harvested from sub-confluent cultures. A total of 5×10^6 (MCF7-Hpa1#19) or 10^7 (HCT116) tumour cells were inoculated subcutaneously into the flank of male SCID mice. HCT116 tumour cells were implanted in PBS; […] cells were implanted in PBS containing 50% matrigel.\nWhen tumours had attained ˜200 mm^3, tumour bearing mice were randomised into treatment groups and dosed with the following; PBS; an isotype matched control IgG2 antibody, 15 mg per kg; anti-heparanase antibody 10E9.1, 7.5 or 15 mg per kg. All treatments were administered once weekly i.p. Tumour growth was measured twice per week using calipers and tumour volumes calculated according to an ellipsoid volume is formula (3.142/6×length×width×width) from measures of the largest tumour diameter and two opposing widths (FIG. 11)."}}}
{"molecule": "10E9.1: fully human anti-heparanase monoclonal antibody, G2κ; VH SEQ ID NO 2, VL SEQ ID NO 4; ATCC PTA-9489 (antibody, listed as Homo Sapiens, V domains shown, fully human anti-heparanase monoclonal antibody, G2κ; ATCC PTA-9489) VH: QVQLVQSGAEVKKPGASVKVSCKVSGYSLTELSIHWVRQAPGKGLEWMGGFDPEDGEIIFAQKFQGRVTLTEDISLDTAYMEVSSLRSEDTAVYYCATEGHDSGDYVGYYYYGLDVWGQGTTVTVSS VL: DIQMTQSPSSLSASVGDRVTITCRASQDIRNFLAWYQQKPGKLPKLLIYAASTLQSGVPSRFSGSGSGTDFTLTISSLQPEDVASYYCQSHNSVPFTFGPGTKVDIR", "values": [{"measurement": "Binding to direct coated heparanase", "setting": "[1]", "result": 0.2, "unit": "OD units"}, {"measurement": "Immunoprecipitation of heparanase from cell lysates", "setting": "[2]", "result": "immunoprecipitation of both precursor and active forms of heparanase"}, {"measurement": "Inhibition of heparanase expression", "setting": "[3]", "result": "significant inhibition of heparanase expression"}, {"measurement": "Binding to cells by FACS", "setting": "[4]", "result": "bind extensively"}, {"measurement": "Binding to cell surface by FACS", "setting": "[5]", "result": "bind to the cell surface of B16F10 AP3 murine melanoma cells"}, {"measurement": "Tumour growth inhibition", "setting": "[6]", "result": "not inhibited"}]}
